Measured values published in PMC6468305.

Biological target: S. epidermidis Csm3 (SeCsm3) in the Cas10–Csm effector complex (S. epidermidis RP62a)
Assay: cryo-EM structure

stoichiometry N: 5
Substance: S. epidermidis Csm3 (SeCsm3) in the Cas10–Csm effector complex (natural protein)
